Assay results reported in article PMC9750192.
Several values for one entry are separate records, joined by “and”; a condition that tells them apart may be missing. Equal entries are not always repeated. Where two headings read alike, the source gives them in different places.

What was measured:
[1] = biological target: GMPCPP-stabilized HeLa cell microtubules (human (endogenous in HeLa)) (UniProt P68363); test: cryo-EM structure
[2] = biological target: GMPCPP-stabilized HeLa cell microtubules (human (endogenous in HeLa)) (UniProt P68363); test: cryo-EM structure; remark: listed apart in the source
[3] = biological target: Taxol-stabilized microtubules enriched in tyrosinated HeLa tubulin (human (endogenous in HeLa) | not stated) (UniProt P68363); test: single-molecule TIRF microscopy
[4] = biological target: Taxol-stabilized microtubules enriched in detyrosinated HeLa tubulin (human (endogenous in HeLa) | not stated) (UniProt P68363); test: single-molecule TIRF microscopy
[5] = biological target: Taxol-stabilized microtubules enriched in tyrosinated HeLa tubulin (human (endogenous in HeLa) | not stated) (UniProt P68363); test: single-molecule TIRF microscopy; remark: listed apart in the source
[6] = biological target: Taxol-stabilized microtubules enriched in tyrosinated HeLa tubulin (human (endogenous in HeLa) | not stated) (UniProt P68363); test: single-molecule TIRF microscopy; remark: listed apart in the source
[7] = biological target: Taxol-stabilized microtubules enriched in tyrosinated HeLa tubulin (human (endogenous in HeLa) | not stated) (UniProt P68363); test: single-molecule TIRF microscopy; remark: listed apart in the source
[8] = biological target: Taxol-stabilized microtubules enriched in detyrosinated HeLa tubulin (human (endogenous in HeLa) | not stated) (UniProt P68363); test: single-molecule TIRF microscopy; remark: listed apart in the source
[9] = biological target: Taxol-stabilized microtubules enriched in tyrosinated HeLa tubulin (human (endogenous in HeLa) | not stated) (UniProt P68363); test: single-molecule TIRF microscopy; remark: listed apart in the source

Chain of Taxol-stabilized microtubules enriched in tyrosinated HeLa tubulin (human (endogenous in HeLa) | not stated) (P68363 whole entry, chain 1 of 2): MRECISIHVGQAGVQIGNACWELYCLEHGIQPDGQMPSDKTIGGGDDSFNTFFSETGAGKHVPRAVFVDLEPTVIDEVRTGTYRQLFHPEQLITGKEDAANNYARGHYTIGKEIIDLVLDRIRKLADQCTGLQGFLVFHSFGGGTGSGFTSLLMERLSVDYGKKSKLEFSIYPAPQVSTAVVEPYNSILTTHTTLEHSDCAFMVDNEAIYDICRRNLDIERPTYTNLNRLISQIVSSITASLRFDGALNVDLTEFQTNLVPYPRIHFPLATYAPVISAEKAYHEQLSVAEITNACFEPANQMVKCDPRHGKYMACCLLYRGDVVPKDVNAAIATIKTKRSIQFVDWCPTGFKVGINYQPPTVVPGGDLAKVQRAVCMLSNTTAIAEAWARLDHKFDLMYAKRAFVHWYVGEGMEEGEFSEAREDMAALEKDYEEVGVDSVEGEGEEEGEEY
Chain of Taxol-stabilized microtubules enriched in tyrosinated HeLa tubulin (human (endogenous in HeLa) | not stated) (P07437 whole entry, chain 2 of 2, further chain): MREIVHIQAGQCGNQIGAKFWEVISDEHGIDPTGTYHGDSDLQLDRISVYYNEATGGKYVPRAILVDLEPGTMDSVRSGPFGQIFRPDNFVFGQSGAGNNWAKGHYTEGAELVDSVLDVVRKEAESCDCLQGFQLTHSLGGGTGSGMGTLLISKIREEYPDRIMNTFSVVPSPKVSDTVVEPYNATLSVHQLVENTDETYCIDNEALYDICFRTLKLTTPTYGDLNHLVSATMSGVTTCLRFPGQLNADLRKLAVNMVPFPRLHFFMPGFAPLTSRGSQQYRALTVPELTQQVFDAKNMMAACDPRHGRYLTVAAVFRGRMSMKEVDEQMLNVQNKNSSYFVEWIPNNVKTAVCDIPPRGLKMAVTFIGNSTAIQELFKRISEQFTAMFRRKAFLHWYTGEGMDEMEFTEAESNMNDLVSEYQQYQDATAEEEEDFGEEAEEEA
Chain of full-length sfGFP-VASH2–SVBP complex (Q86V25 whole entry): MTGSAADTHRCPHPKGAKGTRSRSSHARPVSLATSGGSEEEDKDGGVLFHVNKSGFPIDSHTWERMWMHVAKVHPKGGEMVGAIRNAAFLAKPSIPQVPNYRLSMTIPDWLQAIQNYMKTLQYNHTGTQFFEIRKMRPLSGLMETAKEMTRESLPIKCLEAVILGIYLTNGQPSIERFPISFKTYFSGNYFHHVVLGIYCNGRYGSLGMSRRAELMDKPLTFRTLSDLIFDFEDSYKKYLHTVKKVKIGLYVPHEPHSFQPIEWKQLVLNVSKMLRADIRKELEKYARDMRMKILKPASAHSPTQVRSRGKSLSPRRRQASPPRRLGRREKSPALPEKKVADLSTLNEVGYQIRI
Chain of full-length sfGFP-VASH2–SVBP complex (Q8N300 whole entry): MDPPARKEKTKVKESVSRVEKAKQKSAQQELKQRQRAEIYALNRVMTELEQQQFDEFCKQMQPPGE
Chain of full-length sfGFP-VASH1–SVBP complex (Q7L8A9 whole entry): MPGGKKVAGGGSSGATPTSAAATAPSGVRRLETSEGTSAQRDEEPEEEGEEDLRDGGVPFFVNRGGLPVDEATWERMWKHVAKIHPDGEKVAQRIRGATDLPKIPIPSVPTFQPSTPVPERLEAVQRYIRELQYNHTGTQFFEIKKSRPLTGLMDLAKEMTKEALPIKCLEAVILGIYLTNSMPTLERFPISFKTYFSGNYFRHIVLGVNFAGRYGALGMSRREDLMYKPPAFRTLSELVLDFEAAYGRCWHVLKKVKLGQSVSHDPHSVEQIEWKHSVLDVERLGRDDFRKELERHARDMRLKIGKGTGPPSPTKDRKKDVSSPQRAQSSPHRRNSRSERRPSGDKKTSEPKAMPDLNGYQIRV
Chain of full-length sfGFP-VASH1–SVBP complex (Q8N300 whole entry): as the sequence (Q8N300 whole entry) above
Chain of Taxol-stabilized microtubules enriched in detyrosinated HeLa tubulin (human (endogenous in HeLa) | not stated) (P68363 1-450, chain 1 of 2): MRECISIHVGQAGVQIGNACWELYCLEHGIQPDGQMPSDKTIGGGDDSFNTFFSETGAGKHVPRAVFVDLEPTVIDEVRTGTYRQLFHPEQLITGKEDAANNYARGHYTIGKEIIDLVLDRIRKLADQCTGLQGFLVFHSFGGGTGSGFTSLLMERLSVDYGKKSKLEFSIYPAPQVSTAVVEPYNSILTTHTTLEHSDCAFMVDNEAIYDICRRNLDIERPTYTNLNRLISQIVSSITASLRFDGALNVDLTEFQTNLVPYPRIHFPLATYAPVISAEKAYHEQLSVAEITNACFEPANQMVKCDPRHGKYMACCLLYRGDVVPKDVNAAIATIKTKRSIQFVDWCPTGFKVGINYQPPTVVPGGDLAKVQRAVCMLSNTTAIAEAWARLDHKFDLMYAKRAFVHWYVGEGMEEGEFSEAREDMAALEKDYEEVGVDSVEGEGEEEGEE
Chain of Taxol-stabilized microtubules enriched in detyrosinated HeLa tubulin (human (endogenous in HeLa) | not stated) (P07437 whole entry, chain 2 of 2, further chain): as the sequence (P07437 whole entry, chain 2 of 2, further chain) above

Substance	binding frequency (min^−1.nM^−1.µm^-1) [3]	residence time τ [4] [s]	binding frequency (min-1.nM^−1.µm^−1) [5]	binding frequency (min^−1.nM^−1.µm^-1) [5]	mean covering of the microtubule surface during a 45 s movie [5] [%]	residence time τ [5]	residence time τ [6] [s]	residence time τ [7] [s]	other results
catalytically dead VASH2(Cys158Ala)–SVBP complex for cryo-EM (from UniProt Q86V25 1-355; Q8N300 1-66)									occupancy of the binding sites on the microtubule [1]: 50.9%; occupancy of the binding sites on the microtubule [2]: 40%
catalytically dead full-length sfGFP-VASH1(C169A)–SVBP complex (from UniProt Q7L8A9-1 1-365; Q8N300 1-66)	86.4	0.6	80.4	132	82	1 s and 1.2 s			
full-length sfGFP-VASH2–SVBP complex (from UniProt Q86V25-1 1-355; Q8N300 1-66)				13	25	> 11 s	> 12.9	3.9	residence time τ [8]: 0.6 s; residence time τ [9]: 0.9 s

Continued, in another order:

binding frequency (min^−1.nM^−1.µm^-1) [3]	residence time τ [4] [s]	binding frequency (min-1.nM^−1.µm^−1) [5]	binding frequency (min^−1.nM^−1.µm^-1) [5]	mean covering of the microtubule surface during a 45 s movie [5] [%]	residence time τ [5]	residence time τ [6] [s]	residence time τ [7] [s]	Substance	other results
			13.9	28	> 14.6 s			catalytically dead full-length sfGFP-VASH2(C158A)–SVBP complex (from UniProt Q86V25-1 1-355; Q8N300 1-66)	
		70.7						dead VASH1 core domain (sfGFP-VASH1 57–307 C169A) in complex with SVBP (from UniProt Q7L8A9-1 57-307; Q8N300 1-66)	
51.6	0.5		80.8	75	0.5 s and 0.8 s	1.2	0.2	full-length sfGFP-VASH1–SVBP complex (from UniProt Q7L8A9-1 1-365; Q8N300 1-66)	residence time τ [3]: 0.8 s; binding frequency (min^−1.nM^−1.µm^-1) [7]: 3
